Experimental data taken from paper PMC11297931, “Structural basis of Cdk7 activation by dual T-loop phosphorylation” (Nature Communications, 2024).

B1: VHH_(RD7-04), form for co-crystallization (VHH)
VHH: QVQLVESGGGLVQPGGSLRLSCVASGFTFKNFYMGWVRQAPDKGLEWVATINSGGEIQSYADSVKGRFTISRDNAKNTLYLQMNNLRPEDTAVYYCSKQSSTPAKGQGTQVTVSS
notes: nanobody chain of the deposited structure PDB 8PYR; Expression construct pelB-His6-TEV-NB in a modified pET28a vector; also called nanobody VHH RD7-04; chaperoning nanobody; source: E. coli BL21 (DE3), periplasmic extract, purified (HisTrap, TEV, SEC, reverse Ni-NTA); not shown: His6, N-terminal, cleaved
B2: MBP-Mat1_(230-309) (domain or fragment, human, UniProt P51948 230-309, looked up)
chain: GQHISLAPIHKLEEALYEYQPLQIETYGPHVPELEMLGRLGYLNHVRAASPQDLAGGYTSSLACHRALQDAFSGLFWQPS
notes: source: Sf9 (baculovirus), expressed separately from Cdk7/Cyclin H; purified as an MBP fusion protein; also in lysate (pooled with GST-Cdk7/Cyclin H lysate); not shown: MBP, N-terminal, kept

Legend:
Mat1 (230-309) = target: T1, Mat1 (230-309) (human, UniProt P51948); experiment: crystal structure; Cdk7/Cyclin H/Mat1(230-309) mixed 1:1 with VHH RD7-04, with 1 mM ADP/Mg2+; hanging drop, 0.1 M Hepes pH 7.0, PEG 6K/4K, 15 °C; 2.15 Å; conditions: both partners purified
T1 construct: also called C-terminal fragment of Mat1; source: lysate pooled with GST-Cdk7/Cyclin H lysate; purified (MBPTrap, TEV, SEC, reverse MBP and GST); not shown: MBP, N-terminal, cleaved

[1] = target: Cdk7(R167A)/Cyclin H binary complex (human, UniProt P50613 2-346; P51946 1-323, R167A); experiment: cell-based or functional assay
[2] = target: T2, wild-type Cdk7/Cyclin H binary complex, doubly phosphorylated (human, UniProt P50613 2-346; P51946 1-323, phosphoserine at 164; phosphothreonine at 170 | M1 acetylated); experiment: cell-based or functional assay
[3] = target: T2, wild-type Cdk7/Cyclin H binary complex, …; experiment: SPR; MBP-Mat1(230-309) (15 nM) captured by anti-MBP antibody amine-coupled to a CM5 chip; Cdk7/Cyclin H complexes as analyte, multi-cycle kinetics, up to 150 nM, association 180 s, dissociation 900 s; 25 °C; 10 mM HEPES pH 7.4, 150 mM NaCl, 0.05% Tween20; steady-state affinity fit; Biacore 8K; conditions: both partners purified

T2 sequence (P50613 2-346, chain 1 of 2): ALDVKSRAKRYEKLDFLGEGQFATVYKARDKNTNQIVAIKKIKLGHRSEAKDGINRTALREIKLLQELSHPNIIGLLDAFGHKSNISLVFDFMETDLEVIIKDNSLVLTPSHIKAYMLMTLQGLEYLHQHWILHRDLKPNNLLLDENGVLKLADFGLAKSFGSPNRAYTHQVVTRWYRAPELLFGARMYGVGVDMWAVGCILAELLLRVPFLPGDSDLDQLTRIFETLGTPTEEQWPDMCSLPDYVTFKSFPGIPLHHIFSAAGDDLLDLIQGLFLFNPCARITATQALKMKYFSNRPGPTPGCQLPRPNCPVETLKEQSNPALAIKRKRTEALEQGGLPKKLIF
T2 sequence (P51946 whole entry, chain 2 of 2): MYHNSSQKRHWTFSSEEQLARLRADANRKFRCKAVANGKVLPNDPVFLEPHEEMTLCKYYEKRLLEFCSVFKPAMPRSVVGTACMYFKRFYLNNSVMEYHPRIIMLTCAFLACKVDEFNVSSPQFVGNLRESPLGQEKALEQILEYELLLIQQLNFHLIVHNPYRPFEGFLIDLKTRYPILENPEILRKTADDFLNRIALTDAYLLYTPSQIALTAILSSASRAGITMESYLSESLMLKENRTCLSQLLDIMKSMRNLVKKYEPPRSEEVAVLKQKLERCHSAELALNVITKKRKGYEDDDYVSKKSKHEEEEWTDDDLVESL
Chain of Cdk7(R167A)/Cyclin H binary complex (P50613 2-346 R167A, chain 1 of 2): as the sequence (P50613 2-346, chain 1 of 2) above, with R166A counted along it
Chain of Cdk7(R167A)/Cyclin H binary complex (P51946 whole entry, chain 2 of 2): as the sequence (P51946 whole entry, chain 2 of 2) above

Row | Binder | binding result (Mat1 (230-309)) | stimulation of kinase activity by Mat1 addition, normalized to the complex without Mat1 (Fig. 3f) [1] [fold] | stimulation of kinase activity by Mat1 addition, normalized to the complex without Mat1 (Fig. 3f) [2] [fold] | Kd [3] [nM]
1 | B1 | binds |  |  | 
2 | B2 |  | ~5 | ~10 | 9.8
